These results are taken from patent US20060239990A1 (published 2006).

To fix the notation:
B1: HA-tagged PRMT2 (human Protein Arginine N-Methyltransferase 2, expressed from pVR1012-PRMT2-HA) (enzyme)
chain: MATSGDCPRSESQGEEPAECSEAGLLQEGVQPEEFVAIADYAATDETQLSFLRGEKILILRQTTADWWWGERAGCCGYIPANHVGKHVDEYDPEDTWQDEEYFGSYGTLKLHLEMLADQPRTTKYHSVILQNKESLTDKVILDVGCGTGIISLFCAHYARPRAVYAVEASEMAQHTGQLVLQNGFADIITVYQQKVEDVVLPEKVDVLVSEWMGTCLLFEFMIESILYARDAWLKEDGVIWPTMAALHLVPCSADKDYRSKVLFWDNAYEFNLSALKSLAVKEFFSKPKYNHILKPEDCLSEPCTILQLDMRTVQISDLETLRGELRFDIRKAGTLHGFTAWFSVHFQSLQEGQPPQVLSTGPFHPTTHWKQTLFMMDDPVPVHTGDVVTGSVVLQRNPVWRRHMSVALSWAVTSRQDPTSQKVGEKVFPIWR
notes: Expressed by transient transfection in 293 or Saos 2 cells; also called HA-PRMT2; not shown: HA tag at the C-terminus

Assay [1] deals with T1, retinoblastoma protein (RB), endogenous in cultured cell lines (293, U2OS) (human, UniProt P06400 2-928).
T1 construct: also called endogenous RB
T1 sequence (looked up): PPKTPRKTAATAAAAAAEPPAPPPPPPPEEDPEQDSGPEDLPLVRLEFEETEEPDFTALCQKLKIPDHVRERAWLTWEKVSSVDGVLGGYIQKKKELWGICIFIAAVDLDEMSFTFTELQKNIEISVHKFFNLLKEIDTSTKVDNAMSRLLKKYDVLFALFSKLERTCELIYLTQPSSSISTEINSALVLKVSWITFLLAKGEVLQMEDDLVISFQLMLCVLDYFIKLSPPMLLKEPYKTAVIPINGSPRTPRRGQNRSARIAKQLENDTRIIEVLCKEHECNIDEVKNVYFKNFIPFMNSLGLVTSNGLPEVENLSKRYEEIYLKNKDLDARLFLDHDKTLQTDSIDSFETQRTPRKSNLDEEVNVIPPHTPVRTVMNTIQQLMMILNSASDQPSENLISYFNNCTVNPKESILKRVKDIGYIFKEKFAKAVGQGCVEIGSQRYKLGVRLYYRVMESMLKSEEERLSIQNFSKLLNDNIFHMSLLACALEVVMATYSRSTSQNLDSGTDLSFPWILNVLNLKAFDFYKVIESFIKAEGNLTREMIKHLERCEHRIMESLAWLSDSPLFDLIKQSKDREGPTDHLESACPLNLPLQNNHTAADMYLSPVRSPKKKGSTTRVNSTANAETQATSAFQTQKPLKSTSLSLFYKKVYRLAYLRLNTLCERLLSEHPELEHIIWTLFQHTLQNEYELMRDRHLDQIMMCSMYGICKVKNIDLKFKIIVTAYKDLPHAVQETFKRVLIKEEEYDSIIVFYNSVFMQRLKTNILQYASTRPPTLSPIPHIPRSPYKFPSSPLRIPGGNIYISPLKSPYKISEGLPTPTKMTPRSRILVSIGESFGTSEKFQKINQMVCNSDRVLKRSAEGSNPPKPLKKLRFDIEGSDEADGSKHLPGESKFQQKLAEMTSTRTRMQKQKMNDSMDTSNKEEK
As to the kind of experiment: immunoprecipitation of endogenous RB from 293 cells transfected with HA-tagged PRMT2, Western blot with anti-HA antibody. As for the experimental part:
FIG. 8A-C illustrate that PRMT2 interacts with retinoblastoma protein (RB). […] GST-RB and GST were bound to glutathione sepharose beads and incubated with S³⁵-labeled in vitro translated PRMT1, PRMT2, PRMT3, and PRMT4. Co-precipitated labeled PRMTs were analyzed by SDS-PAGE. […] HA-tagged PRMT2 (+) or control vectors (−) were transfected in 293 cells. Cell lysates were immunoprecipitated with rabbit RB antibodies or IgG and followed by Western blot analysis using mouse HA and RB antibodies (upper panel). A Western blot using mouse HA antibodies detects HA-tagged PRMT2 (lower panel).
The interaction of PRMT2 with RB was then analyzed in vivo. HA-tagged PRMT2 expression vectors or control vectors were transfected into 293 cells, and immunoprecipitation of endogenous RB was followed by a Western blot analysis using an anti-HA antibody. PRMT2 directly interacted with RB in contrast to control vectors (FIG. 8C).

For a further assay, the target named is T2, RelA (p65) in 293 cells (UniProt Q04206 1-551).
T2 construct: also called endogenous p65
As to the kind of experiment: immunoprecipitation with anti-HA antibody from transfected 293 cells, immunoblot for p65. The source says: (§1) To map IκB-α domains that interacted with PRMT2, 293 cells were transfected with HA-tagged PRMT2 (FIG. 5C) and His-tagged derivatives of the indicated IκB-α expression vectors (FIG. 5B) as indicated. 24 hrs later cells were harvested in cell lysis buffer and cell lysates were immunoprecipitated with agarose-conjugated antibody to His (IκB-α) (FIG. 5D, lanes 1-4) and HA (PRMT2) (FIG. 5D, lanes 5-6), fractionated by SDS-PAGE and analyzed by immunoblotting with antibody to HA to detect PRMT2 ((FIG. 5D lanes 1, 2 and lanes 5, 6) and His (FIG. 5D, lanes 3, 4). To map the region of PRMT2 that interacted with endogenous IκB-α and p65, 293 cells were transfected with HA-tagged PRMT2 (FIG. 5C) derivatives as indicated. Cells were harvested 24 hrs after transfection in cell lysis buffer, immunoprecipitated with agarose-conjugated antibody to HA to detect PRMT2 and derivatives (FIG. 5E, lanes 7-15), fractionated by SDS-PAGE and analyzed by immunoblotting with antibody to p65 (FIG. 5E, lanes 7-9), IκB-α (FIG. 5E, lanes 10-12) or HA (FIG. 5E, lanes 13-15).
A polyclonal antibody to recombinant PRMT2 was used to examine the association between endogenous PRMT2 and IκB-α in vivo. […] The domain of IκB-α required for association with PRMT2 was mapped using in vivo immunoprecipitation assays where HA-tagged PRMT2 was coexpressed with truncation mutants of His-tagged IκB-α (FIG. 5B) in 293 cells. The ankyrin domain was both necessary and sufficient for this association (FIG. 5D, lanes 1 and 2). The domain of PRMT2 that interacted with endogenous IκB-α was mapped by immunoprecipitation following expression HA-tagged PRMT2 truncation mutants (FIG. 5C). […] When the ratios of PRMT2 or PRMT2-A binding to IκB-α were compared, both interacted with IκB-α with similar affinity.

Assay [2] addresses B1. As to the kind of experiment: immunoprecipitation with anti-HA antibody from transfected 293 cells, immunoblot for endogenous IκB-α.
Source text: as §1
A polyclonal antibody to recombinant PRMT2 was used to examine the association between endogenous PRMT2 and IκB-α in vivo. […] The domain of IκB-α required for association with PRMT2 was mapped using in vivo immunoprecipitation assays where HA-tagged PRMT2 was coexpressed with truncation mutants of His-tagged IκB-α (FIG. 5B) in 293 cells. […]

The target of assay [3] is T3, STAT3, endogenous in HEK293 cells (human, UniProt P40763 2-770).
T3 construct: also called endogenous STAT3
As to the kind of experiment: immunoprecipitation with anti-Flag antibody from transfected HEK293 cells, immunoblot. As for the experimental part: (§2) To examine whether a direct interaction occurs between PRMT-2 and STAT3 in vivo, FLAG-tagged full-length PRMT-2 cDNA and/or STAT3 cDNA were transiently transfected into HEK293 cells. After culturing the transfected cells, an immunoprecipitation was performed on cell lysates using anti-Flag antibodies followed by immunoblotting with anti-PRMT-2 antibody. […] Identical results were observed when using anti-STAT3 antibodies for immunoprecipitation (data not shown).
On the technique in general: In western blotting, separated proteins are transferred to a membrane and probed.

Assay [4] concerns the target mouse STAT3 (endogenous in GT1-7 cells and VSMC, or expressed from mouse STAT3 pcDNA3 in HEK293 cells) (mouse, UniProt P42227 2-770). As to the kind of experiment: immunoprecipitation with anti-Flag antibody from HEK293 cells transfected with PRMT-2-Flag and STAT3, immunoblot. On the procedure:
as §2

T3 sequence (P40763 2-770 limits assumed): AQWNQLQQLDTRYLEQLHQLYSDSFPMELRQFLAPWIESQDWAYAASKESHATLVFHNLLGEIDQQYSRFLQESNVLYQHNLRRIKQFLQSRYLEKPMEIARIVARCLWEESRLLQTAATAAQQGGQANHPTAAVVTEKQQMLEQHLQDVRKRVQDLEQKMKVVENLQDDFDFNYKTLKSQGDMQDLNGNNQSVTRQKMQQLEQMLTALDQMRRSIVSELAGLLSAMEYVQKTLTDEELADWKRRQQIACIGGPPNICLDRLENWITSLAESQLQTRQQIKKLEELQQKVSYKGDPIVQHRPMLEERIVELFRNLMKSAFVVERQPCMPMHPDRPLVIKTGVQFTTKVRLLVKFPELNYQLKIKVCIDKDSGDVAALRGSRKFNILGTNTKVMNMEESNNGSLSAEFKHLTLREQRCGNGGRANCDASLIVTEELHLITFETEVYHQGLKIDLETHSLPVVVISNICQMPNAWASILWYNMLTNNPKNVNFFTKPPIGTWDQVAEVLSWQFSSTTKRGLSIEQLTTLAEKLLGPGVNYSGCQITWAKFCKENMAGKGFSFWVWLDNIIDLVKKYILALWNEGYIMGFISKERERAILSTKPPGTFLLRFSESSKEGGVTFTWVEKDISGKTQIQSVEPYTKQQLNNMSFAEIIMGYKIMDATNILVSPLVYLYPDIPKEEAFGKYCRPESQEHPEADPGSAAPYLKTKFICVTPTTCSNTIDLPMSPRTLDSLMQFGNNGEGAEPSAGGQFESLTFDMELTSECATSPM
Sequence of mouse STAT3 (endogenous in GT1-7 cells and VSMC, or expressed from mouse STAT3 pcDNA3 in HEK293 cells) (P42227 2-770 limits assumed): as the sequence (P40763 2-770 limits assumed) above, with E759D counted along it
T2 sequence (Q04206 whole entry): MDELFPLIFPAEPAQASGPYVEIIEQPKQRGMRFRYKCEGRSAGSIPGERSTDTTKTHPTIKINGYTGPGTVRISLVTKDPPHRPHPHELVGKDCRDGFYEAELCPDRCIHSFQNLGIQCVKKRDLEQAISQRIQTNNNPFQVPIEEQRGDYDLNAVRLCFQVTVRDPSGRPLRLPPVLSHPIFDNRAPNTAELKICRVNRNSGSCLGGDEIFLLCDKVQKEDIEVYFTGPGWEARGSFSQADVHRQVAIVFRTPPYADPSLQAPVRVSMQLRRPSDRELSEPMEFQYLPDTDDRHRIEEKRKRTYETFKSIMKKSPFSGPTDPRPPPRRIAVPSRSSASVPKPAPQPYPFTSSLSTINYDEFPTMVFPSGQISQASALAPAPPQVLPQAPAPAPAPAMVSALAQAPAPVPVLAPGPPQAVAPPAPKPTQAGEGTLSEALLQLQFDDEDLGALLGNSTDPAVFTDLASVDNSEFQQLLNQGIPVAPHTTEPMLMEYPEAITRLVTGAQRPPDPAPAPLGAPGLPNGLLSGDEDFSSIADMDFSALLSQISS

For B1, the results for the binding result (in assay [1]; with RelA (p65) in 293 cells) were “binds” and “no binding”, respectively.

B2: IκB-α, endogenous in 293 cells (other, human, UniProt P25963 1-317, looked up)
chain: MFQAAERPQEWAMEGPRDGLKKERLLDDRHDSGLDSMKDEEYEQMVKELQEIRLEPQEVPRGSEPWKQQLTEDGDSFLHLAIIHEEKALTMEVIRQVKGDLAFLNFQNNLQQTPLHLAVITNQPEIAEALLGAGCDPELRDFRGNTPLHLACEQGCLASVGVLTQSCTTPHLHSILKATNYNGHTCLHLASIHGYLGIVELLVSLGADVNAQEPCNGRTALHLAVDLQNPDLVSLLLKCGADVNRVTYQGYSPYQLTWGRPSTRIQQQLGQLTLENLQMLPESEDEESYDTESEFTEFTEDELPYDDCVFGGQRLTL
notes: also called endogenous IκB-α
On to B2, for which, in assay [2], the binding result is on record as “binds”.

B3: mouse PRMT2-Flag (FLAG-tagged full-length PRMT-2) (enzyme, UniProt Q9R144 1-448, looked up)
chain: MEAPGEGPCSESQVIPVLEEDPVDYGCEMQLLQDGAQLQLQLQPEEFVAIADYTATDETQLSFLRGEKILILRQTTADWWWGERAGCCGYIPANHLGKQLEEYDPEDTWQDEEYFDSYGTLKLHLEMLADQPRTTKYHSVILQNKESLKDKVILDVGCGTGIISLFCAHHARPKAVYAVEASDMAQHTSQLVLQNGFADTITVFQQKVEDVVLPEKVDVLVSEWMGTCLLFEFMIESILYARDTWLKGDGIIWPTTAALHLVPCSAEKDYHSKVLFWDNAYEFNLSALKSLAIKEFFSRPKSNHILKPEDCLSEPCTILQLDMRTVQVPDLETMRGELRFDIQKAGTLHGFTAWFSVYFQSLEEGQPQQVVSTGPLHPTTHWKQTLFMMDDPVPVHTGDVVHGFCCVTKKSGMEKAHVCLSELGCHVRTRSHVSTELETGSFRSGGDS
notes: Printed both as PRMT2-Flag and as Flag-PRMT2, so the end that carries the tag is uncertain; Expressed in HEK293 cells; also called Flag-PRMT2; Flag PRMT2 fusion protein; not shown: Flag tag
Take B3: the binding result in assay [3] and in assay [4] was “binds” in each case.
